# From paper PMC5599688
# How the values were obtained:
# [1] = molecular target: calnexin (rat brain) (rat (endogenous in brain)) (UniProt P35565); experiment: co-IP; 10% rat brain homogenate (also NEC versus GAERS brain) in 50 mM TrisHCl pH 8.0, 300 mM NaCl, 0.5% Triton X100, 0.5% DOC; rabbit polyclonal anti-CNX overnight at 4 °C, Sepharose G beads; blotted for Cav3.2; signal normalised to precipitated calnexin
# [2] = molecular target: calnexin in tsA-201 cells (not stated (endogenous human in tsA-201, or transfected mouse cDNA)) (UniProt P27824)
# [3] = molecular target: GFP-tagged III-IV linker of human Cav3.2 with R1573P (human) (UniProt O95180); experiment: co-IP; tsA-201 cells 72 h after transfection, NP40 lysis buffer; precipitated with anti-GFP (GFP-tagged Cav3.2 regions), blotted with anti-mCherry; densitometry normalised to expression levels
# [4] = molecular target: GFP-tagged III-IV linker of rat Cav3.2 with exon 25, GAERS mutation R1584P (rat); experiment: as above
# [5] = molecular target: GFP-tagged III-IV linker of rat Cav3.2 without exon 25, wild type (rat); experiment: as above
# [6] = molecular target: GFP-tagged III-IV linker of rat Cav3.2 without exon 25, GAERS mutation R1584P (rat); experiment: as above
# Sequence of GFP-tagged III-IV linker of rat Cav3.2 without exon 25, GAERS mutation R1584P (rat) (Q9EQ60 whole entry R1584P): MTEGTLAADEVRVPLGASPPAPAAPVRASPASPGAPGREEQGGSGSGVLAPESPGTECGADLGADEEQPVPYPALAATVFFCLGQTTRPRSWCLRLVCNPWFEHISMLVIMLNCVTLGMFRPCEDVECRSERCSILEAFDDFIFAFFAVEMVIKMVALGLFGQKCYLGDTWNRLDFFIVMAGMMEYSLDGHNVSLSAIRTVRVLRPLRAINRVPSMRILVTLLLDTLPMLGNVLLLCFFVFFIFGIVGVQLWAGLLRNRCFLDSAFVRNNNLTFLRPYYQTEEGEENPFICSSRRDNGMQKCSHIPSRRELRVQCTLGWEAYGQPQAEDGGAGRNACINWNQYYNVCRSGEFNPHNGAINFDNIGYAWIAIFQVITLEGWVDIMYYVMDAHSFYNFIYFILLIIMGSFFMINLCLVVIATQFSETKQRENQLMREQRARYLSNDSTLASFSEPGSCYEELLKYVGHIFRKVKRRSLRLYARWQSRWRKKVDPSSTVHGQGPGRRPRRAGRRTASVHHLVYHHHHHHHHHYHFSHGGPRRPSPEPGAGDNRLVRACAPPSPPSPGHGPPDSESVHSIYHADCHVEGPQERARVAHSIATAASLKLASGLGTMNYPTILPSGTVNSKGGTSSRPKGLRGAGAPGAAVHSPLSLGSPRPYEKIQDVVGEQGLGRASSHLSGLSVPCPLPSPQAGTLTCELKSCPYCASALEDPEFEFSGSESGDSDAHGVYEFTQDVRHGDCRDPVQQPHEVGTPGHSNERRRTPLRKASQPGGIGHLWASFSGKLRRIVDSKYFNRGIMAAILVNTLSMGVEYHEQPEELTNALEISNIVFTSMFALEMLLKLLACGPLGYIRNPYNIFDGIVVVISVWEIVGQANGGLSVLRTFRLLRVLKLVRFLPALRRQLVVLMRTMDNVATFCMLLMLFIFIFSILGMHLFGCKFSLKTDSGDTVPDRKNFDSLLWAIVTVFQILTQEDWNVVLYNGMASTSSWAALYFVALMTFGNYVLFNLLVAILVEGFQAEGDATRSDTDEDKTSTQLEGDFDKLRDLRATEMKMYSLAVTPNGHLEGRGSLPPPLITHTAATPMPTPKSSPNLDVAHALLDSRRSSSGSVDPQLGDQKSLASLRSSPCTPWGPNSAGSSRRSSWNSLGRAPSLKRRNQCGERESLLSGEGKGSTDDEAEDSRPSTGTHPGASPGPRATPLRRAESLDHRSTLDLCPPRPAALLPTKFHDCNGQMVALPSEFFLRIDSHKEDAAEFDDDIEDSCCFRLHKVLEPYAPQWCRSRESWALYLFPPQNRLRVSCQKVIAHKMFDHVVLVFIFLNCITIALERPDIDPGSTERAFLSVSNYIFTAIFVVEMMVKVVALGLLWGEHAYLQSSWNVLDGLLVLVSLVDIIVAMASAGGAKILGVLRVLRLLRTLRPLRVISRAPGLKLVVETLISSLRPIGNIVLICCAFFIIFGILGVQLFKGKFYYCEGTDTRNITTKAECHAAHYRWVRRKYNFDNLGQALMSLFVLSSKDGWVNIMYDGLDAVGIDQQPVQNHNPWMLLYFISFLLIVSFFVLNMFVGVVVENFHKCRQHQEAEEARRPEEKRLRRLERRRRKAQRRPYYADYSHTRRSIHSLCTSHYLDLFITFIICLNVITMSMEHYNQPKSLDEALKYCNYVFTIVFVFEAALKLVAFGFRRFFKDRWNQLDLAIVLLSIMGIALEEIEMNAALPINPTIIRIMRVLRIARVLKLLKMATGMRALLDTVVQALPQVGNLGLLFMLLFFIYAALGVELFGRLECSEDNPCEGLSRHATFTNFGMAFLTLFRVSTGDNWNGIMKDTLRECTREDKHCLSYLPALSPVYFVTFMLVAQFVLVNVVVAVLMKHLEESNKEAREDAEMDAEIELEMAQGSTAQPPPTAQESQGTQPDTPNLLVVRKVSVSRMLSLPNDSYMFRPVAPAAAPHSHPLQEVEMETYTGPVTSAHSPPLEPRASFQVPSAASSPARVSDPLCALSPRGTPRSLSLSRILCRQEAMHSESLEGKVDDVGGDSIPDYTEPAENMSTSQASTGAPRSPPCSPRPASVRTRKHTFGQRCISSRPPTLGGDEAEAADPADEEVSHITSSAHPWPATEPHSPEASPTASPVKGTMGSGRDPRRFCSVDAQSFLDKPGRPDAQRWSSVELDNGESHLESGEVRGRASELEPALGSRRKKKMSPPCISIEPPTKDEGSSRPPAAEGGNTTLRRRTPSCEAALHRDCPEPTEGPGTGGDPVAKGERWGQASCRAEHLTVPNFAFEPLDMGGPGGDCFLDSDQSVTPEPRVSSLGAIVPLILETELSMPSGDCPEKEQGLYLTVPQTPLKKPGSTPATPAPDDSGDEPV
# Sequence of UniProt P27824 (P27824 21-592): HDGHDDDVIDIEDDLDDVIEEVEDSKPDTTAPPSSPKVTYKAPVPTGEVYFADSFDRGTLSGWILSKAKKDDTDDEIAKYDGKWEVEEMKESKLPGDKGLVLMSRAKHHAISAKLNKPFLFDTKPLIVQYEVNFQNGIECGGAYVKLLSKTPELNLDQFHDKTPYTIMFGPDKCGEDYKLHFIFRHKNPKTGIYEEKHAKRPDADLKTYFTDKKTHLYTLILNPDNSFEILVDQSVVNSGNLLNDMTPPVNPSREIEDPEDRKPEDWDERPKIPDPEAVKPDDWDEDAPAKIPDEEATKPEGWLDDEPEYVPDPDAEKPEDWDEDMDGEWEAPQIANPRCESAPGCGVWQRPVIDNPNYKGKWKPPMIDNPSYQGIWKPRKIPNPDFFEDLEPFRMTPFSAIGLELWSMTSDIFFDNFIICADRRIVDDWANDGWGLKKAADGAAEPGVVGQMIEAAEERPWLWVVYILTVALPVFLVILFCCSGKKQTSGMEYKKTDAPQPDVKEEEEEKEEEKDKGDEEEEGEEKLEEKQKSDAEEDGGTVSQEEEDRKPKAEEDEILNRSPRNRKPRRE
# Sequence of GFP-tagged III-IV linker of rat Cav3.2 without exon 25, wild type (rat) (Q9EQ60 whole entry, stated change not applied): as the sequence (Q9EQ60 whole entry R1584P) above, with P1584R counted along it
# Sequence of UniProt P35565 (P35565 21-591): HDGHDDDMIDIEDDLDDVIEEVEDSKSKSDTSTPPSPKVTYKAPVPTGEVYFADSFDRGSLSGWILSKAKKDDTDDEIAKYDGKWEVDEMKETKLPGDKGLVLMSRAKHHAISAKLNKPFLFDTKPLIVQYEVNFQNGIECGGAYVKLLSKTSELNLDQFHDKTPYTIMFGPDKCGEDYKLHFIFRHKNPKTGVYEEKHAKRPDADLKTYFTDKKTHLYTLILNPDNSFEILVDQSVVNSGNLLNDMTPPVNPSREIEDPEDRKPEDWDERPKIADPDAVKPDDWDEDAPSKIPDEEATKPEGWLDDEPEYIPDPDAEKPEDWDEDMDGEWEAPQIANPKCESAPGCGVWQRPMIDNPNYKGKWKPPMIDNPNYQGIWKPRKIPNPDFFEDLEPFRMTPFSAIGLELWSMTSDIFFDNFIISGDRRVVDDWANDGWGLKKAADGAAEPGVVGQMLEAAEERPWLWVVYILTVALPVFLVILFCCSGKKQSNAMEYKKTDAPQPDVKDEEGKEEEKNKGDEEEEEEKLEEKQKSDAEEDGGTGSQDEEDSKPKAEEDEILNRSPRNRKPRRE
# Sequence of GFP-tagged III-IV linker of rat Cav3.2 with exon 25, GAERS mutation R1584P (rat) (Q9EQ60 whole entry R1584P): as the sequence (Q9EQ60 whole entry R1584P) above
substance,measurement,setting,value
"Cav3.2 T-type calcium channel of GAERS brain (R1584P), Q9EQ60 1-2359","decrease of Cav3.2 co-immunoprecipitated with calnexin, GAERS against NEC brain",[1],42%
"HA-tagged human Cav3.2 channel, O95180 1-2353","mean peak Ba2+ current density at −20 mV, tsA-201 cells expressing HA-hCav3.2 with the soluble calnexin C-tail CNX^CD against control cells (increase)",[2],76%
same,"surface expression of HA-tagged Cav3.2 by immunostaining, tsA-201 cells expressing the calnexin C-tail CNX^CD against control cells (increase)",[2],30%
mCherry-tagged calnexin lacking the luminal domain (CNX^BD) (from UniProt P35564 483-591) (domain or fragment),decrease of co-immunoprecipitated calnexin C-tail against the wild-type III-IV linker,[3],70%
same,decrease of binding against wild-type rIII-IV (+25),[4],82%
same,decrease of binding against wild-type rIII-IV (+25),[5],75%
same,additional decrease of binding (reference unclear: printed as against wild-type rIII-IV (+25)),[6],69%
